B1: library; numbered along this chain (parent)
chain: MEVVDPQQLGMFTEGELMSVGMDTFIHRIDSTEVIYQPRRKRAKLIGKYLMGDLLGEGSYGKVKEVLDSETLCRRAVKILKKKKLRRIPNGEANVKKEIQLLRRLRHKNVIQLVDVLYNEEKQKMYMVMEYCVCGMQEMLDSVPEKRFPVCQAHGYFCQLIDGLEYLHSQGIVHKDIKPGNLLLTTGGTLKISDLGVAEALHPFAADDTCRTSQGSPAFQPPEIANGLDTFSGFKVDIWSAGVTLYNITTGLYPFEGDNIYKLFENIGKGSYAIPGDCGPPLSDLLKGMLEYEPAKRFSIRQIRQHSWFRKKHPPAEAPVPIPPSPDTKDRWRSMTVVPYLEDLHGADEDEDLFDIEDDIIYTQDFTVPGQVPEEEASHNGQRRGLPKAVCMNGTEAAQLSTKSRAEGRAPNPARKACSASSKIRRLSACKQQ

Variants of: B1
Experiment: STK11 functional score (HeLa growth suppression), rescaled enrichment; synonymous median = 1, nonsense median = 0 (normalised score)
Conditions: with HeLa; variant type: missense
How it was run: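 The functional score takes the post/pre-selection log ratio, corrects it to wild type, rescales it to synonymous and nonsense medians, and merges it over codons and replicate transfections, with error from bootstrapping. Counts came from tiled gDNA amplicons sequenced on NextSeq (~2 million reads per tile). The libraries were POPCode codon-randomised, codon-optimised STK11 integrated by Bxb1 at an AAVS1 landing pad in HeLa, three regions with three transfections each.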

STK11 functional score of substitutions, site by site:
N181: Y -0.0251; I -0.248; H 0.134; G 0.0242; A 0.0629; E -0.231; M -0.246; P -0.0573; S -0.0295; R -0.0333; T -0.449; L -0.122; F -0.0897; D -0.134; Q 0.708; K -0.18; V -0.181; C -0.0246; W -0.0742
K178: S 0.586; C 0.883; F 0.35; G 0.325; M 0.202; W 0.413; P -0.0986; V 0.434; R 0.681; A 0.756; E -0.00538; T 0.951; L 0.63; I 0.388
L184: A 0.745; S 0.61; N 0.425; C 0.804; R 0.329; M 0.45; W 0.145; P 0.189; G 0.204; V 1.01; T 1.49; I 0.978; Q 0.906; D -0.0783; H 0.93; F 0.735
K175: W 0.478; R 1.47; S 0.884; T 1.07; P -0.179; V 0.466; Q 1.19; Y 0.592
I177: R -0.0129; H -0.12; P 0.166; V 1.06; M 0.6; S -0.0448; W -0.249; F 0.54; G -0.017; Y 0.215; D 0.0262; A 0.128; L 0.956
T185: P 0.0618; W 0.387; N 0.509; V 0.913; I 0.548; L 1.08; H 0.484; D 0.415; C 1.13; S 0.939; F 0.993; R 0.992; G 0.548; Y 0.976
T186: H 0.54; L 1.54; F 1.33; C 1.19; A 1.16
L182: T 1.12; W 0.0906; N 1.01; A 0.345; G 0.327; R 0.129; F 1.03; Y -0.00243; E -0.122; S 0.561; C 1.17; H -0.198; V 0.907; I 1.56; P -0.0858; D 0.257
G180: C 1.09; Q 1.64; T 1.53; L 1.02; W 1.44; V 0.816; F 0.804; R 0.948; P 0.814; N 1.39; H 1.65; I 1.41; E 1.09; M 0.93; A 1.34; S 1.14
L183: S 0.646; V 1.2; R 0.0747; F 0.885; E 0.3; Y 1.57; D 0.119; M -0.0817; T 1.1; P 0.221; H 1.43; G 0.551; A 0.587
P179: A 0.764; E 0.0456; Y 0.059; T 0.709; F 0.0795; S 0.562; W 0.088; I 0.823; M 0.544; G 0.216; H -0.0435; R -0.0831; V 0.541; L 0.376; D -0.213
D176: C -0.0937; F -0.058; S -0.0857; I -0.156; P 0.0199; K -0.194; H -0.154; E 0.211; V 0.0775; L -0.164; R -0.0226; T -0.105; N -0.273; M 0.0191; W -0.0742; G -0.169; Y -0.343; A -0.0851

From the supplement of paper PMC12338614
